T1: ADAM12-Cat (truncated ADAM12 protein consisting of only the pro and catalytic domains) (human, UniProt O43184-2 29-419)
T1 sequence (looked up): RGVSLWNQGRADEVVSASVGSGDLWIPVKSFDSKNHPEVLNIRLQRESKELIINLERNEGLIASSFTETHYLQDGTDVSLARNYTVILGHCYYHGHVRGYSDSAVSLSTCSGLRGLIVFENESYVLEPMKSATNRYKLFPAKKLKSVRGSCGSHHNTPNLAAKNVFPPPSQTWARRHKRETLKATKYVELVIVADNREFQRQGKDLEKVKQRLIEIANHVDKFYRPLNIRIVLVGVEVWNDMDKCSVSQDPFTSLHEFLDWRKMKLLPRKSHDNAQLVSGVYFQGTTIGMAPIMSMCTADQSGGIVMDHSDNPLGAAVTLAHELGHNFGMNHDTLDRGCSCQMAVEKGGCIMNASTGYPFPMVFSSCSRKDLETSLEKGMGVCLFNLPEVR

T2: ADAM12-S (shorter secreted form of ADAM12), full-length (human, UniProt O43184-2 29-707)
T2 sequence (looked up): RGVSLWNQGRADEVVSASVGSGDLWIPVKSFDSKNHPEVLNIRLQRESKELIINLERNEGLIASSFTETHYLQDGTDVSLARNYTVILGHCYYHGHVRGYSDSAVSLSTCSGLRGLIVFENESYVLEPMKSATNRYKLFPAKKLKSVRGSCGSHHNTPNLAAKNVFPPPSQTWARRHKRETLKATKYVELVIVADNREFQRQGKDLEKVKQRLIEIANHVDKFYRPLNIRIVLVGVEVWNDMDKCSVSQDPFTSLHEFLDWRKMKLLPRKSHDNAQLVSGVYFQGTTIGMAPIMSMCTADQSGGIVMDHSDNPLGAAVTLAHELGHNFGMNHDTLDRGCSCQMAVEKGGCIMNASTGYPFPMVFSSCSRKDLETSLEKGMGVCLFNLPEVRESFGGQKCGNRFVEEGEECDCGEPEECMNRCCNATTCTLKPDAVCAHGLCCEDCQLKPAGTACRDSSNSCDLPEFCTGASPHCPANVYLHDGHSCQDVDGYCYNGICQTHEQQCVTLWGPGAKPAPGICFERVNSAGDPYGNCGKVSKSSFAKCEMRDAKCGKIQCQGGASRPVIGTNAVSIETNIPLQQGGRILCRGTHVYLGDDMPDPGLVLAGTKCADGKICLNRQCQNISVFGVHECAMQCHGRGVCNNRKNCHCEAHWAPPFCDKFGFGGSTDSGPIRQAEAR


Legend:
[1] = molecular target: T1, ADAM12-Cat (truncated ADAM12 protein …); test: enzyme inhibition kinetics
[2] = molecular target: T2, ADAM12-S (shorter secreted form of …); test: enzyme inhibition kinetics

Ki [1]	Ki [2]	Binder
0.93 nM	4.4 nM	N-TIMP-3 (N-terminal domain of TIMP-3), wild-type (domain or fragment, human) CTCSPSHPQDAFCNSDIVIRAKVVGKKLVKEGPFGTLVYTIKQMKMYRGFTKMPHVQYIHTEASESLCGLKLEVNKYQYLLTGRVYDGKMYTGLCNFVERWDQLTLSQRKGLNYRYHLGCN
741 nM	223 nM	TIMP-1 (tissue inhibitor of metalloproteinases 1), full-length (natural protein) not shown
